These results are taken from patent US20160244529A1 (ROTTAPHARM BIOTECH S R L, published 2016).

In test [1] the target is T1, human Ig1,2 TrkA (recombinant D4-D5 domain of human TrkA receptor) (human, UniProt P04629 191-392).
T1 construct: also called hTrkA Ig1,2; TrkA Ig1,2
T1 chain: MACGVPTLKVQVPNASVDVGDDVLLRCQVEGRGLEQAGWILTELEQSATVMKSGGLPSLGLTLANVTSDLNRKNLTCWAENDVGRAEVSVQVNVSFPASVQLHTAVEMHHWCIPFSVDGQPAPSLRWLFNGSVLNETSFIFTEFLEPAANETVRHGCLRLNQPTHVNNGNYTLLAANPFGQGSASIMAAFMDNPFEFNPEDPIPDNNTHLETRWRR
The experiment in a line: SPR (Biacore X-100); scFv immobilised on CM5 chip, human Ig1,2 TrkA injected. As for the experimental part: (§1) The antibodies were also shown to be specific for hTrkA and mTrkA by relative binding to the BIACore sensor chips coated with the appropriate antigen. Antibodies were immobilized by ammine coupling to Biosensor CM5 sensorchips (Pharmacia) according to the manufacturers instructions. Anti-TrkA scFv proteins were diluted at 20-50 μg/ml in suitable pre-concentration buffer (at least 2 pH unit below the pI of the scFv in order to get a net positive charge), chosen among the Acetate buffers. The scFvs were immobilized at 100 RU to get a low density immobilization. As binder, the recombinant protein consisting of D4-D5 domain of human and murine TrkA receptor (hTrkA Ig1,2 and mTrkA Ig1,2 respectively) were injected over the immobilized scFv with a contact time of 60 seconds and with a dissociation time of 400 seconds and the assay workflow placed 5 serial dilutions of the TrkA Ig1,2 (starting in the micromolar range and diluting 1:2 each time). The regeneration condition were mild (contact time 30 seconds, 10 mM Glycine pH2). On the basis of the resulting sensorgrams, the concentrations of TrkA Ig1,2 were adjusted to optimize, contact time, dissociation time and regeneration. Data were analysed by Bioevaluation Software (see results on Table II and Table III). The quality of the data fitting were checked by the value of Chi² and of the U-value.
(§2) We have carried out surface plasmon resonance (SPR) analyses to determine the binding kinetics of a panel of isolated anti-TrkA scFvs (SEQ ID NOs: 1, 2, 3, 4, 5, 6, 7, 8, 9, 10, 11, 12, 13, 14, 15 and 16). The scFvs were immobilized on a CM5 chip followed by injections at various concentration of human and murine Ig 1,2 TrkA (SEQ ID NO: 78) and mouse Ig1,2 TrkA (SEQ ID NO: 79).
For orientation: SPR reads the build-up and loss of mass on a sensor chip optically.

The target in test [2] is T2, mouse Ig1,2 TrkA (recombinant D4-D5 domain of murine TrkA receptor) (mouse, UniProt Q3UFB7 193-413).
T2 construct: also called mTrkA Ig1,2
T2 sequence (Q3UFB7 other isoform, or with tags, fused parts or gaps limits assumed): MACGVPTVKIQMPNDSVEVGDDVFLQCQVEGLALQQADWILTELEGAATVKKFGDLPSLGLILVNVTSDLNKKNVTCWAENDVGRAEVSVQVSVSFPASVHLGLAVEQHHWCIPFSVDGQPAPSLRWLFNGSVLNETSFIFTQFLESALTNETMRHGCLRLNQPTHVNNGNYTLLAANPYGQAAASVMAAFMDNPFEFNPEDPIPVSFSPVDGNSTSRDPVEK
The test is described as follows: SPR (Biacore X-100); scFv immobilised on CM5 chip, mouse Ig1,2 TrkA injected. As to the method: as §1, §2

Another test deals with T3, human p75 immunoadhesin (human; Camelus dromedarius, UniProt P08138 29-250).
T3 construct: extracellular domain; also called hp75-Fc; p75NTR immunoadhesin; not shown: Fc portion (immunoglobulin heavy chain constant region) of IgG2a camel antibody (Camelus dromedarius)
T3 sequence (looked up): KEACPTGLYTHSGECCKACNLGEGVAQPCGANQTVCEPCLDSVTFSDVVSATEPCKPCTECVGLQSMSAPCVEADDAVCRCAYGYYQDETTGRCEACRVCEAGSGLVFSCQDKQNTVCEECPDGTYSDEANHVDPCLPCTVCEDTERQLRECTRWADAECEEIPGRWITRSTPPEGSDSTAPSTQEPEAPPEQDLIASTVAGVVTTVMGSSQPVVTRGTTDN
The experiment in a line: specificity ELISA, antigens coated at 2 µg/mL, scFv at 50 ug/mL (upper panel) and 5 ug/mL (lower panel), OD 450 nm. As for the experimental part: (§3) FIG. 3. Specificity ELISA of isolated anti-TrkA scFvs versus human TrkA immunoadhesin (hTrkA-Fc), human TrkB immunoadhesins (hTrkB-Fc), human TrkC immunoadhesins (hTrkC-Fc) and human p75 immunoadhesins (hp75-Fc). Human antigens were coated at 2 μg/mL. Anti-TrkA scFvs were used at 50 μg/mL (upper panel) and/or 5 μg/mL (lower panel). The mean absorbance at 450 nm of the experiments performed in duplicate wells is shown with SD indicated by the bars.
In general terms: In an ELISA, binding on a coated surface is turned into a signal by an enzyme label.

Test [3] deals with T4, human TrkA receptor (native, on TF-1 cells) (human, UniProt P04629 33-796).
T4 construct: also called TF1 expressing TrkA receptor; TF-1 cell line expressing human TrkA receptor
T4 sequence (P04629 33-796 limits assumed): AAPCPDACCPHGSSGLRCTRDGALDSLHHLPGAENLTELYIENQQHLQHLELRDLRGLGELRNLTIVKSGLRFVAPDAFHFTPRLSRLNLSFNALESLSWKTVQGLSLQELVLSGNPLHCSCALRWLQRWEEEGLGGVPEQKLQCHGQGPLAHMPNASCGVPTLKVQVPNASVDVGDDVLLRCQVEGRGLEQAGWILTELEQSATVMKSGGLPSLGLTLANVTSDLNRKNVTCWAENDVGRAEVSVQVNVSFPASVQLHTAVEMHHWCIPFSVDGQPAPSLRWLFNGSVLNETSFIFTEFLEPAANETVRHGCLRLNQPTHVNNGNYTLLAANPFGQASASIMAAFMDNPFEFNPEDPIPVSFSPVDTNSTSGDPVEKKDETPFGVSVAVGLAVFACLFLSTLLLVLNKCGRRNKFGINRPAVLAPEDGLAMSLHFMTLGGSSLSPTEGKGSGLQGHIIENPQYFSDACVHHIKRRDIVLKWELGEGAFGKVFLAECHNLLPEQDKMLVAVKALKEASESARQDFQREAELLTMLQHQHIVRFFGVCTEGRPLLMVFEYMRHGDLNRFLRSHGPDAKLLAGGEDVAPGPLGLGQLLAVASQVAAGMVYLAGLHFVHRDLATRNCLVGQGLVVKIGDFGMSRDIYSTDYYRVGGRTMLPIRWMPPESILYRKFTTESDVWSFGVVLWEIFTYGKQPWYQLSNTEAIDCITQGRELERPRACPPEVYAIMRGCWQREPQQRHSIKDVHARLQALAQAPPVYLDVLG
The test is described as follows: chip-based flow cytometry (Agilent Bioanalyzer 2100) on TF-1 cells expressing human TrkA; scFv at 5 µg/ml per paragraph 159. As for the experimental part:
FIG. 5. FACS analysis performed with Bioanalyzer 2100. A cell fluid chip-based fluorescent cytometric assay that runs on Bioanalyzer 2100 (Agilent) for fast characterization of small population cell phenotypes was assessed. The assay determines the expression of specific cell surface markers. In this experiment, the specificity of scFvs on TF-1 cell line expressing human TrkA receptor was assessed. Six samples can be analyzed on each chip in one automated process. Results were in good agreement with conventional flow cytometry in quantisation.
10⁶ cells/sample=tot: 6×10⁶ cells are first centrifuged at 350 g for 5 min at room temperature (RT) and wash with 12 ml of Staining Buffer (SB) at RT. The pellet was resuspended in 3 ml of SB at 4° C. and aliquot 0.5 ml of suspension in 1.5 ml conical tubes. Cells were centrifuged again at 350 g for 5 min at 4° C. and the pellet was resuspended in 1 ml HBSS at 4° C. 125 μl 16% p-formaldehyde (final conc 1.7%) was added into each tube and then the sample was incubated for 10 min at 4° C. on tube rotator. After 10 minutes, 75 μl of 10% detergent solution-Tween 20 (final conc 0.6%) was added and the samples were then incubated for 10 min at 4° C. on tube rotator. Samples were then washed once with FACS Buffer (0.8 ml/sample) at 4° C. and then centrifuged at 350 g for 5 min at 4° C. Cells were resuspended with 80 μl/sample of FACS Buffer. 20 μl of a 5× primary antibody solution were added (final concentration of scFvs is 5 μg/ml). After incubation for 1 hour at 4° C. on tube rotator samples were washed with FACS Buffer (0.5 ml/sample) at 4° C. and then centrifuged 5 min at 350 g at 4° C. Cells were resuspended with 80 μl/sample of FACS Buffer. 20 μl of a 5× secondary antibody solution were added. Final concentration of mouse anti-V5 antibody is 0.20 μg/ml. The samples were incubated for 1 hour at 4° C. on tube rotator. After incubation for 1 hour at 4° C. on tube rotator samples were washed with FACS Buffer (0.5 ml/sample) at 4° C. and then centrifuged 5 min at 350 g at 4° C. Cells were resuspended with 80 μl/sample of FACS Buffer. 20 μl of a 5× tertiary antibody solution were added. Final concentration of anti-mouse IgG-Cy5 is 4 μg/ml (1:250 diluted). The samples were incubated for 1 hour at 4° C. on tube rotator.

For another test, the target named is T5, human TrkB immunoadhesin (human; Camelus dromedarius, UniProt Q16620 32-430).
T5 construct: extracellular domain; also called hTrkB-Fc; TrkB immunoadhesins; not shown: Fc portion (immunoglobulin heavy chain constant region) of IgG2a camel antibody (Camelus dromedarius)
T5 sequence (Q16620 32-430): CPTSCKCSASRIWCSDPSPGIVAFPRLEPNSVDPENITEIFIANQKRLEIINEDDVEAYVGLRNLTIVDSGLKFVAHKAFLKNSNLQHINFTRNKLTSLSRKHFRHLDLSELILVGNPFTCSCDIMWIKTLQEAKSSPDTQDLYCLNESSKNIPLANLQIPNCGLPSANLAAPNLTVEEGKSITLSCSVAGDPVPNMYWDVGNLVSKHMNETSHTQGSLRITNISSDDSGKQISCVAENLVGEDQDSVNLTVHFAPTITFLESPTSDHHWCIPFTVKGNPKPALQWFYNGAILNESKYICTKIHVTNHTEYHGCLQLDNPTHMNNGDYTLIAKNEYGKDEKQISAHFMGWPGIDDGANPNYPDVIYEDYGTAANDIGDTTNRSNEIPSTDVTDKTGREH
The test is described as follows: specificity ELISA, antigens coated at 2 µg/mL, scFv at 50 ug/mL (upper panel) and 5 ug/mL (lower panel), OD 450 nm. As for the experimental part: as §3

For the next test, the target named is T6, human TrkC immunoadhesin (human; Camelus dromedarius, UniProt Q16288 32-429).
T6 construct: extracellular domain; also called hTrkC-Fc; TrkC immunoadhesins; not shown: Fc portion (immunoglobulin heavy chain constant region) of IgG2a camel antibody (Camelus dromedarius)
The description is as above. As to the method: as §3

Broadly, the Kd is the equilibrium constant for the complex coming apart. In general, koff refers to a measure of how fast the partners let go of each other. The term kon denotes the second-order rate constant of association.

B1: anti-TrkA scFv CRB0082 (scFv)
scFv: SYVLTQPPSVSVAPGTTARLSCEATKIGSQRLHWYQQKPGQAPVMVISFDSDRPSGIPDRFSGSRSGNTATLTISGVEAGDEADYYCNSRDSSGYHLVFGGGTKLTVLSGGSTSGSGKPGSGEGSSGTQVQLQQSGPGLVKPSQTLSLTCAISGDSVSSFTVAWNWIRQSPSRGLERLGRTYRRSKDYAEYMRSRLTINADTSKNQLSLQLDSVTPDDTAVYYCARGQNSAFDLWGQRTMVTVSS
notes: From hSPLINT_09 selection
Take B1: in test [1], the equilibrium dissociation constant (Kd) stood at 42.1 nM, the koff was 8.79e-05 s⁻¹ and the on-rate constant (kon) stood at 2090 M⁻¹ s⁻¹. Also, in test [2], the Kd was 131 nM, the koff was 0.000344 s⁻¹ and the kon was determined as 2630 M⁻¹ s⁻¹.

B2: anti-TrkA scFv CRB0036 (scFv)
scFv: DIVMTQAAPSVPVTPGESVSISCRSSKSLLHSSGITSLYWYLQRPGQSPQLPIYRMSSLASGVPDRFSVSGSGTAFTLRISRVEAEDVGVYYCMQHLEYPLTFGAGTKLELKRSGGSTSGSGKPGSGEGSSGTQVQLQQSGAELLKPGASVKISCKATGYTFSNYWIEWVKQRPGHGLEWIGEILPGSGSAHYSEKFKDKATFTADTSSNTAYMQLSSLTSEDSAVYFCTRSPPNPGYWGQGTSVTVSS
notes: From mSPLINT selection
With B2, the Kd stood at 13.7 nM in test [1] and 1.1 nM in test [2]. The results for the koff in test [1] and in test [2] were 3.75e-05 s⁻¹ and 7.07e-06 s⁻¹, respectively. Also, the kon in test [1] amounted to 2730 M⁻¹ s⁻¹; in test [2], 6440 M⁻¹ s⁻¹. In addition, the binding result is reported as “no binding (tested: 50 ug/mL)” with human p75 immunoadhesin and “binds” in test [3].

B3: anti-TrkA scFv CRB0084 (scFv)
scFv: QPVLTQPPSVSVAPRQTATITCGGNYIGSKSVHWYQQKPGQDPVLVVNDDSDRPSGIPERFSGSNSANTATLTISGVEAGDEADYYCQVWDSSTEPVVFGGGTKLTVLSGGSTSGSGKPGSGEGSSGTQVQLQQWGAGLLRPSETLSLTCTVSGGSFSDSYWTWIRQSPGKGLEWIGENNHRGSTNYSPTLRSRLSISIDSSKNQFSLKLSSVTAADTAVYYCARVPYRLRSRIFDVWGQGTMVTVSS
notes: From hSPLINT_09 selection
Consider B3, for which the equilibrium dissociation constant (Kd) in test [1] is 1700 nM; in test [2], 2.18 nM. For the same molecule, the koff is 0.0163 s⁻¹ in test [1] and 2.33e-05 s⁻¹ in test [2]. In addition, the kon in test [1] stood at 9600 M⁻¹ s⁻¹; in test [2] it was 10700 M⁻¹ s⁻¹. The binding result is “no binding (tested: 50 ug/mL)” with human TrkB immunoadhesin, “no binding (tested: 50 ug/mL)” with human TrkC immunoadhesin and “binds” in test [3].

B4: anti-TrkA scFv CRB0069 (scFv)
scFv: QPGLTQPPSASGTPGQRVTISCTGSSSNVGAGYTVHWYQQLPGTAPTLLIYDNNNRPSGVPDRFSGSRSGTSASLAITGLRAEDEADYYCQSYDRSRVYVFGTGTKLTVLSGGSTSGSGKPGSGEGSSGTQVQLQQSGPGLVKPSQTLSLTCAISGDSVSSNSAAWNWIRQSPSRGLERLGRTYYRSKWYNDYAESVKSRIIINSGTSKNQFSLHLNSVTPEDTAVYYCGRAKDGWYDAFDIWGQGTTVTVSS
notes: From hSPLINT_09 selection
With B4, in test [1], the Kd stood at 5.7 nM, the off-rate constant (koff) was 3.57e-05 s⁻¹ and the association rate constant (kon) amounted to 6270 M⁻¹ s⁻¹. Besides, in test [2], the Kd worked out at 1.67 nM, the koff came to 1.02e-05 s⁻¹ and the kon was found to be 6120 M⁻¹ s⁻¹. Besides, in test [3], the binding result is on record as “binds”.

B5: anti-TrkA scFv CRB0089 (scFv)
scFv: QTVVTQEPSVSGAPGQRVTISCTGSSSIIGAGYEVHWYQHLPGTAPKLLIYDSINRPSGVPDRFSGSKSGTSASLAITGLQAEDEADYYCQSSAIFGGGTKLTVLSGGSTSGSGKPGSGEGSSGTQVQLQESGPGLVKPSQTLSLTCAISGDSVSSNSAAWNWIRQSPSRGLEWLGRTFHRSRWYNEYPVSVRSRITINPDTSNNQFTLQLNSVTPDDTAVYYCARAPVAGLTFDIWGQGTMVTVSS
notes: From hSPLINT_09 selection
As for B5, the Kd in test [1] came to 16.9 nM; in test [2] it was 14.2 nM. The koff in test [1] is 7.76e-05 s⁻¹; in test [2] it was 3.19e-05 s⁻¹. Also, the results for the kon in test [1] and in test [2] were 4600 M⁻¹ s⁻¹ and 2250 M⁻¹ s⁻¹, respectively. Also, the results for the binding result (with human TrkC immunoadhesin; with human p75 immunoadhesin; in test [3]) were “no binding (tested: 50 ug/mL)”, “no binding (tested: 50 ug/mL)” and “binds”, respectively.
